In patent US6335019B1, “Methods for treating sensitivity to protein allergen using peptides which include a T cell epitope recognized by a T cell receptor specific for the protein allergen” (Immulogic Pharmaceutical Corp., priority 1989, dated 2002):

B1: Amb a II: E. coli expressed recombinant Amb a II (Antigen K) (protein)
chain: LYFTLALVTLVQAGRLGEEVDILPSPNDTRRSLQGCEAHNIIDKCWRCKPDWAENRQALGDCAQGFGKATHGGKWGDIYMVTSDQDDDVVNPKEGTLRFGATQDRPLWIIFQRDMIIYLQQEMVVTSDTTIDGRGAKVELVYGGITLMNVKNVIIHNIDIHDVRVLPGGRIKSNGGPAIPRHQSDGDAIHVTGSSDIWIDHCTLSKSFDGLVDVNWGSTGVTISNCKFTHHEKAVLLGASDTHFQDLKMHVTLAYNIFTNTVHERMPRCRFGFFQIVNNFYDRWDKYAIGGSSNPTILSQGNKFVAPDFIYKKNVCLRTGAQEPEWMTWNWRTQNDVLENGAIFVASGSDPVLTAEQNAGMMQAEPGDMVPQLTMNAGVLTCSPGAPC
B2: chromatographically purified Amb a II: chromatographically purified Amb a II (Antigen K) from ragweed pollen (protein)
chain: GEEVDILPSPNDTRRSLQGCEAHNIIDKCWRCKPDWAENRQALGNCAQGFGKATHGGKWGDIYMVTSDQDDDVVNPKEGTLRFGATQDRPLWIIFQRDMIIYLQQEMVVTSDKTIDGRGAKVELVYGGITLMNVKNVIIHNIDIHDVRVLPGGRIKSNGGPAIPRHQSDGDAIHVTGSSDIWIDHCTLSKSFDGLVDVNWGSTGVTISNCKFTHHEKAVLLGASDTHFQDLKMHVTLAYNIFTNTVHERMPRCRFGFFQIVNNFYDRWDKYAIGGSSNPTILSQGNKFVAPDFIYKKNVCLRTGAQEPEWMTWNWRTQNDVLENGAIFVASGSDPVLTAEQNAGMMQAEPGDMVPQLTMNAGVLTCSPGAPC

Key:
[1] = test system: rabbit antisera directed against an Amb a II sequence (amino acid 326-338; RAE 50. K); assay: Western blot of recombinant proteins with monospecific anti-peptide antisera against RAE 50. K; assay type: binding; settings: Western blots, data not shown
Description: Proteins or peptides encoded by the cDNA of the present invention can be used, for example, as “purified” allergens. Such purified allergens are useful in the standardization of allergen extracts which are key reagents for the diagnosis and treatment of ragweed allergy. Furthermore, by using peptides based on the sequences listed in FIGS. 2 through 16, anti-peptide antisera or monoclonal antibodies can be made using standard methods. Such reagents can be specifically directed against individual isoforms of Amb a I or Amb a II (i.e., directed against divergent regions/epitopes of the molecule) or can be specific for all forms Amb a I or Amb a II (i.e, directed against common sequences/epitopes). These sera or monoclonal antibodies, directed against Amb a I or Amb a II, can be used to standardize allergen extracts. One such monospecific anti-peptide antisera has already been successfully produced.

[2] = test system: goat anti-Amb a I antibody; assay: Western blot of E. coli-expressed recombinant Amb a I / Amb a II with goat anti-Amb a I antibody (FIG. 19); assay type: binding
Protocol: (§1) Furthermore, full-length and truncated cDNAs encoding several members of the Amb a I multigene family, as well as Amb a II, were cloned in-frame into the expression vector pTrc99 (Amann et al. Gene, 69:301-315, (1988)) and transformed into the JM109 host. Expression of recombinant Amb a I and Amb a II protein was induced by 1 mM isopropyl-β-D-thiogalactopyranoside, cells were harvested, lysozyme treated, sonicated and insoluble inclusion bodies recovered by a low speed centrifugation. Recombinant Amb a I and Amb a II protein present in the recovered pellet was solubilized in buffer containing 8M urea, 50 mM Tris HC1 pH8.0, 50 mM NaCl, 1 mM EDTA, 1 mM dithiothreitol, 1 mM phenylmethylsulfonyl fluoride. After solubilization, the crude urea lysate was dialyzed at 4° C. against PBS. […] This antigenic cross-reactivity is consistent with the observed sequence homology of the cDNAs (see FIG. 16).
Isoelectric focusing was done on a Hoeffer gel apparatus with 15 μg of crude soluble pollen protein. The gel consisted of 7.5% acrylamide with 3.5% Pharmalytes pH 4.5-5.3 (Pharmacia) and 3.5% Ampholines pH 3.5-10 (LKB), run at 13W for 3.5 hours until a constant voltage was reached. The gel section was placed on a slab of 10% acrylamide SDS-PAGE and electrophoresed for 3.5 hours at 40 mA according to the protocol cited. The proteins were transferred overnight in phosphate buffer to 0.1 micron nitrocellulose (Schleicher and Schuell) at 0.2A. The blot was rinsed in blot solution (25 mM Tris-CHl pH 7.5, 0.171 M NaCl, 0.05% Tween-20; Sigma). The first antibody incubation was overnight at room temperature with a […] of goat anti-Amb a I IgC (obtained from Dr. David Marsh) in blot solution. The excess first antibody was removed with three 15 minute rinses with blot solution. The second antibody was a 1:2,500 dilution of biotinylated swine anti-goat IgG (Boehringer-Manneheim) in blot solution for two hours. The blot was then rinsed with blot solution three times for 15 minutes and incubated for 1 hr in blot solution with 2 μCi I^125 streptavidin (Amersham). The blots were rinsed with blot solution until the waste wash was down to background. The blot was then exposed to film at —80° C. overnight. In the case of one-dimensional SDS-PAGE Western blots (FIGS. 17, 19 and 20) the isoelectric focusing step was omitted. When human sera was used to probe the Western blots (FIGS. 17 and 20), 10% human plasma in 1% milk in blot solution was incubated overnight with the blot prior to using as second antibody biotinylated goat anti-human IgE.

[3] = test system: human IgE (ragweed allergic patient sera); assay: SDS-PAGE Western blot (and ELISA) of ragweed allergic patient IgE binding to pollen, affinity purified and recombinant Amb a I / Amb a II; design: key to IgE binding, summarized Western blot data: −: no signal over background; +−: barely discernable over background; +: clearly positive; ++: strongly positive; +++: highly positive
Protocol: As represented in FIG. 1A, a selected monoclonal antibody (designated 4B5/B7) which recognizes an Amb a I preparation unsubjected to denaturing conditions was used to affinity purify from pollen extract a single protein, which is referred to as affinity purified Amb a I. This was carried out, using known techniques, by producing the desired monoclonal antibody, isolating it in large quantities from ascites and immobilizing it on Sepharose (Pharmacia). Aqueous pollen extract was passed over the monoclonal antibody-containing column and a protein species was eluted.
as §1
Comparison of human IgE binding to recombinant Amb a I and Amb a II proteins with anti-peptide and monoclonal anti-Amb a I antibodies have provided data consistent with the conclusion that the N-terminal portion (historically referred to as the β-region) of Amb a IA includes the major IgE eptiope(s).
Affinity purified Amb a I was electrophoresed, Western transferred (Towbin et al., Proc. Natl. Acad. Sci. USA, 76:4350 (1979)) and probed with a variety of antibodies, including IgE from an allergic patient (FIG. 17). In pollen extract Amb a I is not only present as an intact 38-KD species, but also characterized by its component 26KD alpha chains and 12-KD beta chains which are formed by enzymatic cleavage. The intact 38-KD species and the alpha chain are clearly detected using rabbit anti-Amb a I, polyclonal affinity purified anti-RAE 16 and monoclonal anti-Amb a I JBIE3-4 (FIG. 17); RAE 16 peptide has the sequence RTDKDLLENGAIC derived from amino-acids […] of Amb a IB, FIG. 16). Affinity purified Amb a I (partial sequence presented in Table 1) as well as chromatographically purified Amb a II (partial sequence presented in Table 2) are bound on Western blots by these antibodies as well as by patient IgE (FIG. 17). The goat anti-Amb a I polyclonal antibody also binds multiple Amb a I and Amb a II species on a two dimensional Western blot of pollen extract (FIG. 18). The Western blot was performed as outlined below. […]

[4] = test system: rabbit anti-Amb a I polyclonal antibody; assay: Western blot with rabbit anti-Amb a I polyclonal antibody (FIG. 17); assay type: binding
Description: As is also represented in FIG. 1A, rabbit polyclonal antibodies were produced using the King Antigen E preparation. […] These antibodies were also shown, using a similar technique, to bind to the affinity purified Amb a I described previously (FIG. 17).
It is clear from the antibody reactivity that the 4B5/B7 affinity purified Amb a I has a recognition pattern similar to that of the Amb a I of pollen and skin test reagent with both rabbit polyclonal anti-Amb a I and JB1E3-4 anti-Amb a I monoclonal antibody (FIG. 17).
Affinity purified Amb a I was electrophoresed, Western transferred (Towbin et al., Proc. Natl. Acad. Sci. USA, 76:4350 (1979)) and probed with a variety of antibodies, including IgE from an allergic patient (FIG. 17). In pollen extract Amb a I is not only present as an intact 38-KD species, but also characterized by its component 26KD alpha chains and 12-KD beta chains which are formed by enzymatic cleavage. The intact 38-KD species and the alpha chain are clearly detected using rabbit anti-Amb a I, polyclonal affinity purified anti-RAE 16 and monoclonal anti-Amb a I JBIE3-4 (FIG. 17); RAE 16 peptide has the sequence RTDKDLLENGAIC derived from amino-acids 343-353 of Amb a IB, FIG. 16). […]

| Molecule | Binding by rabbit anti-RAE 50. K antisera (in words) [1] | Binding by goat anti-Amb a I antibody (in words) [2] | IgE binding, summarized Western blot data ([3]; patient 151) | IgE binding, summarized Western blot data ([3]; patient 222) | IgE binding, summarized Western blot data ([3]; patient 291) | IgE binding, summarized Western blot data ([3]; patient 295) | IgE binding, summarized Western blot data ([3]; patient 296) | Binding by rabbit anti-Amb a I polyclonal antibodies (in words) [4] | Human IgE binding (in words) ([3]; Western blot (FIG. 17) and/or ELISA, ragweed allergic patient IgE) |
| --- | --- | --- | --- | --- | --- | --- | --- | --- | --- |
| B1 | binds specifically | binds specifically | + | + | +− | − | − |  |  |
| B2 |  |  |  |  |  |  |  | cross-reactive B-cell epitopes | bound |
